Test results taken from paper PMC4352895, “Jarid2 Methylation via the PRC2 Complex Regulates H3K27me3 Deposition during Cell Differentiation” (Molecular Cell, 2015).

Target: ΔEed (Eed residues 77 to 441) (UniProt O75530)
Experiment: ITC; ΔEed (residues 77 to 441) with methylated peptides; conditions in the Supplemental Experimental Procedures

ΔEed (Eed residues 77 to 441), sequence (O75530 77-441, stated change not applied): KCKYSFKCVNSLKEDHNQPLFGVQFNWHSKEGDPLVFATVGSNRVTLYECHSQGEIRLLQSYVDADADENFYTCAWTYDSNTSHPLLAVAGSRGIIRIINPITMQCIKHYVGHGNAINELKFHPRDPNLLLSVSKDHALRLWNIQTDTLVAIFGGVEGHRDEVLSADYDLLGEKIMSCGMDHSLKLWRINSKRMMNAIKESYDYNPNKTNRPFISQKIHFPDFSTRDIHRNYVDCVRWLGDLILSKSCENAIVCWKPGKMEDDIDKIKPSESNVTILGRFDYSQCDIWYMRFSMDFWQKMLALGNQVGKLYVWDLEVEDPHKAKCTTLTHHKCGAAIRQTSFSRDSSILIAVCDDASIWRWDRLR

- Kd: 3000 nM
- fold affinity against the H3K27me3 peptide: 10 fold
Substance: Jarid2-K116me3 peptide
